Reference: patent US20240270846A1 (published 2024)
Where a chain is given by its changes, count along the chain named. In names and notes the source's numbering stands.

B1: GLS3000 V51E one-arm antibody (antibody, human IgG1, kappa, L234A L235A, N297A, name in Kabat numbering)
light: DIVMTQSPLSLPVTPGEPASISCRSSQSLVHSNRNTYLHWYQQKPGQAPRLLIYKESNRFSGVPDRFSGSGSGTDFTLKISRVEAEDVGVYYCGQGTQVPYTFGQGTKLEIKRTVAAPSVFIFPPSDEQLKSGTASVVCLLNNFYPREAKVQWKVDNALQSGNSQESVTEQDSKDSTYSLSSTLTLSKADYEKHKVYACEVTHQGLSSPVTKSFNRGEC
heavy: QVQLVESGGGVVQPGRSLRLSCAASGFTFSNAWMHWVRQAPGKGLEWVAQIKAKSNNYATYYAESVKGRFTISRDDSKNSLYLQMNSLKTEDTAVYYCRYVHYGAYYGVDAWGQGTTVTVSSASTKGPSVFPLAPSSKSTSGGTAALGCLVKDYFPEPVTVSWNSGALTSGVHTFPAVLQSSGLYSLSSVVTVPSSSLGTQTYICNVNHKPSNTKVDKKVEPKSCDKTHTCPPCPAPEAAGGPSVFLFPPKPKDTLMISRTPEVTCVVVDVSHEDPEVKFNWYVDGVEVHNAKTKPREEQYASTYRVVSVLTVLHQDWLNGKEYKCKVSNKALPAPIEKTISKAKGQPREPQVYTLPPSRCELTKNQVSLSCAVKGFYPSDIAVEWESNGQPENNYKTTPPVLDSDGSFFLVSKLTVDKSRWQQGNVFSCSVMHEALHNHYTQKSLSLSPDYKDDDDK
chain: EPKSSDKTHTCPPCPAPELLGGPSVFLFPPKPKDTLMISRTPEVTCVVVDVSHEDPEVKFNWYVDGVEVHNAKTKPREEQYNSTYRVVSVLTVLHQDWLNGKEYKCKVSNKALPAPIEKTISKAKGQPREPQVCTLPPSRDELTKNQVSLWCLVKGFYPSDIAVEWESNGQPENNYKTTPPVLDSDGSFFLYSKLTVDKSRWQQGNVFSCSVMHEALHNRYTQKSLSLSP
B2: GLS3000 V94H one-arm antibody (antibody, human IgG1, kappa, L234A L235A, N297A, name in Kabat numbering)
light: B1 light with E56V, V99H
heavy: B1 heavy
chain: B1 chain
B3: GLS3000 Y96F one-arm antibody (antibody, human IgG1, kappa, L234A L235A, N297A, name in Kabat numbering)
light: B1 light with E56V, Y101F
heavy: B1 heavy
chain: B1 chain
B4: GLS3000 V94R one-arm antibody (antibody, human IgG1, kappa, L234A L235A, N297A, name in Kabat numbering)
light: B1 light with E56V, V99R
heavy: B1 heavy
chain: B1 chain
B5: GLS3000 V94E one-arm antibody (antibody, human IgG1, kappa, L234A L235A, N297A, name in Kabat numbering)
light: B1 light with E56V, V99E
heavy: B1 heavy
chain: B1 chain
B6: GLS3000 Y32F one-arm antibody (antibody, human IgG1, kappa, L234A L235A, N297A, name in Kabat numbering)
light: B1 light with Y37F, E56V
heavy: B1 heavy
chain: B1 chain
B7: GLS3000 V94W one-arm antibody (antibody, human IgG1, kappa, L234A L235A, N297A, name in Kabat numbering)
light: B1 light with E56V, V99W
heavy: B1 heavy
chain: B1 chain
B8: GLS3000 Y96D one-arm antibody (antibody, human IgG1, kappa, L234A L235A, N297A, name in Kabat numbering)
light: B1 light with E56V, Y101D
heavy: B1 heavy
chain: B1 chain
B9: GLS3000 V94M one-arm antibody (antibody, human IgG1, kappa, L234A L235A, N297A, name in Kabat numbering)
light: B1 light with E56V, V99M
heavy: B1 heavy
chain: B1 chain
B10: GLS3000 V94P one-arm antibody (antibody, human IgG1, kappa, L234A L235A, N297A, name in Kabat numbering)
light: B1 light with E56V, V99P
heavy: B1 heavy
chain: B1 chain
B11: GLS3000 V94K one-arm antibody (antibody, human IgG1, kappa, L234A L235A, N297A, name in Kabat numbering)
light: B1 light with E56V, V99K
heavy: B1 heavy
chain: B1 chain
B12: GLS3000 Y96E one-arm antibody (antibody, human IgG1, kappa, L234A L235A, N297A, name in Kabat numbering)
light: B1 light with E56V, Y101E
heavy: B1 heavy
chain: B1 chain
B13: GLS3000 V94D one-arm antibody (antibody, human IgG1, kappa, L234A L235A, N297A, name in Kabat numbering)
light: B1 light with E56V, V99D
heavy: B1 heavy
chain: B1 chain
B14: GLS3000 Y32P one-arm antibody (antibody, human IgG1, kappa, L234A L235A, N297A, name in Kabat numbering)
light: B1 light with Y37P, E56V
heavy: B1 heavy
chain: B1 chain
B15: GLS3000 V94N one-arm antibody (antibody, human IgG1, kappa, L234A L235A, N297A, name in Kabat numbering)
light: B1 light with E56V, V99N
heavy: B1 heavy
chain: B1 chain
B16: GLS3000 V51P one-arm antibody (antibody, human IgG1, kappa, L234A L235A, N297A, name in Kabat numbering)
light: B1 light with E56P
heavy: B1 heavy
chain: B1 chain
B17: GLS3000 V94G one-arm antibody (antibody, human IgG1, kappa, L234A L235A, N297A, name in Kabat numbering)
light: B1 light with E56V, V99G
heavy: B1 heavy
chain: B1 chain
B18: GLS3000 V94T one-arm antibody (antibody, human IgG1, kappa, L234A L235A, N297A, name in Kabat numbering)
light: B1 light with E56V, V99T
heavy: B1 heavy
chain: B1 chain
B19: GLS3000 V94F one-arm antibody (antibody, human IgG1, kappa, L234A L235A, N297A, name in Kabat numbering)
light: B1 light with E56V, V99F
heavy: B1 heavy
chain: B1 chain
B20: GLS3000 V51G one-arm antibody (antibody, human IgG1, kappa, L234A L235A, N297A, name in Kabat numbering)
light: B1 light with E56G
heavy: B1 heavy
chain: B1 chain
B21: GLS3000 V94S one-arm antibody (antibody, human IgG1, kappa, L234A L235A, N297A, name in Kabat numbering)
light: B1 light with E56V, V99S
heavy: B1 heavy
chain: B1 chain
B22: GLS3000 V51I one-arm antibody (antibody, human IgG1, kappa, L234A L235A, N297A, name in Kabat numbering)
light: B1 light with E56I
heavy: B1 heavy
chain: B1 chain
B23: GLS3000 Y96H one-arm antibody (antibody, human IgG1, kappa, L234A L235A, N297A, name in Kabat numbering)
light: B1 light with E56V, Y101H
heavy: B1 heavy
chain: B1 chain
B24: GLS3000 V94L one-arm antibody (antibody, human IgG1, kappa, L234A L235A, N297A, name in Kabat numbering)
light: B1 light with E56V, V99L
heavy: B1 heavy
chain: B1 chain
B25: GLS3000 Y96L one-arm antibody (antibody, human IgG1, kappa, L234A L235A, N297A, name in Kabat numbering)
light: B1 light with E56V, Y101L
heavy: B1 heavy
chain: B1 chain
B26: GLS3000 V94I one-arm antibody (antibody, human IgG1, kappa, L234A L235A, N297A, name in Kabat numbering)
light: B1 light with E56V, V99I
heavy: B1 heavy
chain: B1 chain
B27: GLS3000 V94Q one-arm antibody (antibody, human IgG1, kappa, L234A L235A, N297A, name in Kabat numbering)
light: B1 light with E56V, V99Q
heavy: B1 heavy
chain: B1 chain
B28: CE115HA000/GLS3000 N53D one-arm antibody (antibody, human IgG1, kappa, L234A L235A, N297A, name in Kabat numbering)
heavy: B1 heavy
chain: B1 chain
light: B1 light with E56V, N58D
notes: one-arm IgG1
B29: CE115HA000/GLS3000 F55E one-arm antibody (antibody, human IgG1, kappa, L234A L235A, N297A, name in Kabat numbering)
heavy: B1 heavy
chain: B1 chain
light: B1 light with E56V, F60E
notes: one-arm IgG1
B30: CE115HA000/GLS3000 F55H one-arm antibody (antibody, human IgG1, kappa, L234A L235A, N297A, name in Kabat numbering)
heavy: B1 heavy
chain: B1 chain
light: B1 light with E56V, F60H
notes: one-arm IgG1
B31: CE115HA000/GLS3000 F55D one-arm antibody (antibody, human IgG1, kappa, L234A L235A, N297A, name in Kabat numbering)
heavy: B1 heavy
chain: B1 chain
light: B1 light with E56V, F60D
notes: one-arm IgG1
B32: CE115HA000/GLS3000 F55G one-arm antibody (antibody, human IgG1, kappa, L234A L235A, N297A, name in Kabat numbering)
heavy: B1 heavy
chain: B1 chain
light: B1 light with E56V, F60G
notes: one-arm IgG1
B33: CE115HA000/GLS3000 F55I one-arm antibody (antibody, human IgG1, kappa, L234A L235A, N297A, name in Kabat numbering)
heavy: B1 heavy
chain: B1 chain
light: B1 light with E56V, F60I
notes: one-arm IgG1

Molecular target: T1, CD3 epsilon homodimer protein (UniProt P07766 23-126)
T1 construct: Construct of the homodimer is not described; also called CD3 (CD3 epsilon)
Test: SPR Biacore T200, CD3e homodimer on chip, antibody analyte;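 further: CD3 epsilon homodimer amine-coupled on CM4 sensor chip, antibodies injected as analyte at 25 °C in HBS-EP+, ratio ≥0.8 taken as binding retained versus unaltered parent antibody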
T1 sequence (P07766 23-126): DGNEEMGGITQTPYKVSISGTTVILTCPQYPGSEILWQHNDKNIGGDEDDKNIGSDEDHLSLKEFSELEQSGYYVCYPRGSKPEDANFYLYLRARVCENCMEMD

ratio of amounts bound (altered form/GLS3000) | Binder
0.64 | B1
0.78 | B2
1.17 | B3
0.66 | B4
0.5 | B5
0.29 | B6
0.58 | B7
0.17 | B8
0.44 | B9
1.26 | B10
0.57 | B11
0.17 | B12
0.89 | B13
0.24 | B14
1.05 | B15
0.32 | B16
0.48 | B17
0.93 | B18
0.71 | B19
0.84 | B20
0.93 | B21
0.81 | B22
0.23 | B23
0.44 | B24
0.32 | B25
0.66 | B26
0.76 | B27

Molecular target: T2, CD3 epsilon homodimer protein (UniProt P07766 23-126)
T2 construct: also called CD3 (CD3 epsilon)
Test: SPR (Biacore T200), CD3e homodimer on CM4 chip, antibody as analyte; KD ratio vs unaltered GLS3000;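 further: CD3 epsilon homodimer amine-coupled to the sensor surface, antibodies injected as analyte at 25 °C with HBS-EP+ running buffer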
T2 sequence (P07766 23-126): as above

KD ratio to GLS3000 [ratio] | Binder
2.8 | B28
0.92 | B29
1.02 | B30
1.02 | B31
1.15 | B32
1.28 | B33
